According to US7067277B1, “Chimeric G proteins and uses thereof” (H. Lundbeck A/S, priority 1999, dated 2006):
Numbering of substitutions follows the chain as printed.

T1: h Y1 (Homo sapiens, UniProt P25929)
T1 construct: expressed in transfected cells; host or cells: COS-7
T1 sequence (P25929 1-384): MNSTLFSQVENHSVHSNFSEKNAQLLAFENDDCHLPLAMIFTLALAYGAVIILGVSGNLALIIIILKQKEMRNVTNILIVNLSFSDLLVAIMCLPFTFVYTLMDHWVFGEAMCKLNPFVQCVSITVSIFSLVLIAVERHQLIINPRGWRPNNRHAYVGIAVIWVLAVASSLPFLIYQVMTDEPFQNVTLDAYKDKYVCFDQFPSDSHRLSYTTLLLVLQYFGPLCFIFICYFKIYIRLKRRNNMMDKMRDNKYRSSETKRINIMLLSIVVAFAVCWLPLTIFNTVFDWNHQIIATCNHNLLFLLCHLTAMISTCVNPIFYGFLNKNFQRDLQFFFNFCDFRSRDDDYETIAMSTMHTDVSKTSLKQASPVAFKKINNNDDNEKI

T2: h GALR2 (Homo sapiens, UniProt O43603)
T2 construct: expressed in transfected cells; host or cells: COS-7
T2 sequence (O43603 1-387): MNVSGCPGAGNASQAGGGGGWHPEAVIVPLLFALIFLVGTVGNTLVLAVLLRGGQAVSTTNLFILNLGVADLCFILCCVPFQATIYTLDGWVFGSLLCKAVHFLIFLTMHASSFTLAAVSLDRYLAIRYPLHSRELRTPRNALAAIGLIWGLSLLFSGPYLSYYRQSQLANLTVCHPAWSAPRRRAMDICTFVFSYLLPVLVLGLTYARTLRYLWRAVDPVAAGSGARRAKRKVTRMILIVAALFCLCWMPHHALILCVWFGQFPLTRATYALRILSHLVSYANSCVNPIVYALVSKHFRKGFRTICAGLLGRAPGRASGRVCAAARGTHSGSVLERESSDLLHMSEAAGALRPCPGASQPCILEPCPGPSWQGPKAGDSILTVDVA

T3: h GALR1 (Homo sapiens, UniProt P47211)
T3 construct: expressed in transfected cells; host or cells: COS-7
T3 sequence (P47211 1-349): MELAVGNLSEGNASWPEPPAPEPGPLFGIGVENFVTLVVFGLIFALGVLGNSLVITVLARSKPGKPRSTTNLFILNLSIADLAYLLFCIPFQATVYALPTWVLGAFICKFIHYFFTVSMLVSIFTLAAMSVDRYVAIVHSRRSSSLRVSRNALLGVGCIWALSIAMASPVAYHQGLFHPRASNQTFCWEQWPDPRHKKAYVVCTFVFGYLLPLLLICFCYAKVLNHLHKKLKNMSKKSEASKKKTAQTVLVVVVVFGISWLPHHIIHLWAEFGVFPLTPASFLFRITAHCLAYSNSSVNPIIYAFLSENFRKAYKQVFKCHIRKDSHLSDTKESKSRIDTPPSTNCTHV

T4: h 5HT1F (Homo sapiens, UniProt P30939)
T4 sequence (P30939 1-366): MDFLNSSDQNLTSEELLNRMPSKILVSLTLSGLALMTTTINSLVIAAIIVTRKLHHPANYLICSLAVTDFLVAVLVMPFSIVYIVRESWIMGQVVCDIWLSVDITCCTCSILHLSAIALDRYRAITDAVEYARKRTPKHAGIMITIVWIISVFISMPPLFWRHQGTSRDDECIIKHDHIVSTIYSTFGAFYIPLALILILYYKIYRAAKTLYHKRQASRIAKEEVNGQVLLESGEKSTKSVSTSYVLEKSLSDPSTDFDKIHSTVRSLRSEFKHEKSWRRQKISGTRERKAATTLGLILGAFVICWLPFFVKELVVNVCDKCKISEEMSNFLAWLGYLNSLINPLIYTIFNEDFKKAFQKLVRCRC

B1: cGαq/z5: chimeric Gα subunit: C-terminal final 5 amino acids of C. elegans Gαq replaced with those of hGαz (SEQ ID NO: 1) (protein)
chain: MACCLSEEAREQKRINQEIEKQLQRDKRNARRELKLLLLGTGESGKSTFIKQMRIIHGQGYSEEDKRAHIRLVYQNVFMAIQSMIRAMDTLDIKFGNESEELQEKAAVVREVDFESVTSFEEPYVSYIKELWEDSGIQECYDRRREYQLTDSAKYYLSDLRRLAVPDYLPTEQDILRVRVPTTGIIEYPFDLEQIIFRMVDVGGQRSERRKWIHCFENVTSIMFLVALSEYDQVLVECDNENRMEESKALFRTIITYPWFTNSSVILFLNKKDLLEEKILYSHLADYFPEYDGPPRDPIAAREFILKMFVDLNPDADKIIYSHFTCATDTENIRFVFAAVKDTILQHNLKYIGLC
modifications: C. elegans
B2: cGαq/z9: C. elegans Gαq with Gαz portion of the C-terminal tail extended to 9 amino acids (SEQ ID NO: 2) (protein)
chain: B1 chain with H347N
modifications: C. elegans

Legend:
Experiment in all cases: Calcium mobilization (FLIPR, Fluo-3) in transfected COS-7 cells
Format in all cases: cell-based
h NPFF2 = target: T5, h NPFF2 (Homo sapiens, UniProt Q9Y5X5); settings: h NPFF2 + chimera in COS-7; agonist NPFF, max 10 μM
T5 construct: expressed in transfected cells; host or cells: COS-7
Method in brief: (§1)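 COS-7 cells were transiently co-transfected (DEAE-dextran) with GPCR and chimeric G protein cDNA, 1:1 for a single chimera or 8:1:1 GPCR:Gαq/z:Gαq/s for the mix, and assayed two days later. Agonist-evoked Fluo-3 fluorescence was read by FLIPR over 3 min at room temperature.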

h Y1 = target: T1, h Y1; settings: h Y1 + chimera in COS-7; agonist NPY, max 10 μM
Method in brief: as §1

h GALR2 = target: T2, h GALR2; settings: h GALR2 + chimera in COS-7; agonist GAL, max 10 μM
Method in brief: as §1

h GALR1 = target: T3, h GALR1; settings: h GALR1 + chimera in COS-7; agonist GAL, max 10 μM
Method in brief: as §1

h MCH = h MCH (Homo sapiens, UniProt Q99705); settings: h MCH + chimera in COS-7; agonist MCH, max 10 μM
Method in brief: as §1

h 5HT1F = target: T4, h 5HT1F; settings: h 5HT1F + chimera in COS-7; agonist 5HT, max 100 μM
Method in brief: as §1

h GLP-1 = h GLP-1 (Homo sapiens, UniProt P43220); settings: h GLP-1 + chimera in COS-7; agonist GLP-1, max 10 μM
Method in brief: as §1

T5 sequence (Q9Y5X5 103-522 limits assumed): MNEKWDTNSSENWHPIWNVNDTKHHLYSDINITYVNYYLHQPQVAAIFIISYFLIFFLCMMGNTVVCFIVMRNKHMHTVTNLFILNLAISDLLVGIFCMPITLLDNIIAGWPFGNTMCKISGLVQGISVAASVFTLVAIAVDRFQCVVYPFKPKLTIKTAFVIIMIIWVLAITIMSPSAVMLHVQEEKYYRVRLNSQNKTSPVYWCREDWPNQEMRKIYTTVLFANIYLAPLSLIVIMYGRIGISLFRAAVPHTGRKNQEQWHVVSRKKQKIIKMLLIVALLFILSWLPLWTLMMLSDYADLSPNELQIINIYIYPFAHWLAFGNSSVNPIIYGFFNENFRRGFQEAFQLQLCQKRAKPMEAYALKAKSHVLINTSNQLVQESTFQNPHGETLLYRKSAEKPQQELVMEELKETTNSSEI
Chain of h MCH (Q99705 whole entry): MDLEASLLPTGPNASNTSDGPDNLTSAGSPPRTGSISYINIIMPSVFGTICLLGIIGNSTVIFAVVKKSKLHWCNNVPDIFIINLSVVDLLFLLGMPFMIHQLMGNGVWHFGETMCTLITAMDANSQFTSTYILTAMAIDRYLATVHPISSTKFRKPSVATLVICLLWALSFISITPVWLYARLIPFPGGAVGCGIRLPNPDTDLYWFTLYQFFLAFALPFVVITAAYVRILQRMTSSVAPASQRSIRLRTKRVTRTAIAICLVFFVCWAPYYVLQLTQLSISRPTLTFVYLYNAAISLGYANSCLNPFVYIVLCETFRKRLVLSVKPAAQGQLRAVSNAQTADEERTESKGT
Chain of h GLP-1 (P43220 24-463): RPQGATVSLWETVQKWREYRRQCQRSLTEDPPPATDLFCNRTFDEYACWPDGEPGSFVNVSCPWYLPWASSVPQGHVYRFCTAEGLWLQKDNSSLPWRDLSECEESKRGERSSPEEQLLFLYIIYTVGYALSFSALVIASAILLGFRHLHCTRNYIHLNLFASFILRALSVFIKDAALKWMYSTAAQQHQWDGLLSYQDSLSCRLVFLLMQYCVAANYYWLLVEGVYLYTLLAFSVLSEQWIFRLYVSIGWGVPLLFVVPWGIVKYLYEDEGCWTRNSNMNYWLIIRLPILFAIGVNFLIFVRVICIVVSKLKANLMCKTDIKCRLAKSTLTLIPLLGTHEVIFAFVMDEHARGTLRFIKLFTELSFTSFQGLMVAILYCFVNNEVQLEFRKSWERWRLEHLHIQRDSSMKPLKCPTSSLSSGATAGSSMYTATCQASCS

Row | Molecule | MAXIMAL SIGNAL (FLUORESCENCE UNITS) (h NPFF2) | MAXIMAL SIGNAL (FLUORESCENCE UNITS) (h Y1) | MAXIMAL SIGNAL (FLUORESCENCE UNITS) (h GALR2) | MAXIMAL SIGNAL (FLUORESCENCE UNITS) (h GALR1) | MAXIMAL SIGNAL (FLUORESCENCE UNITS) (h MCH) | MAXIMAL SIGNAL (FLUORESCENCE UNITS) (h 5HT1F) | MAXIMAL SIGNAL (FLUORESCENCE UNITS) (h GLP-1)
1 | B1 | 7566 fluorescence units | 7722 fluorescence units | 5470 fluorescence units | 7648 fluorescence units | 2699 fluorescence units | 243 fluorescence units | 131 fluorescence units
2 | B2 | 4578 fluorescence units | 6728 fluorescence units | 4899 fluorescence units | 8489 fluorescence units | 3332 fluorescence units | 384 fluorescence units | 135 fluorescence units
